# Data from PMC3950512.
# Experiments:
# Assay in all cases: purified protein
# Settings in all cases: 25°C, 50 mM Tris-HCl pH 8.0, 10 mM MgCl2
# [1] = system: C[N+]1(C)CCC[C@@H]1C(=O)[O-]
# [2] = system: C[N+]1(C)C[C@H](O)C[C@H]1C(=O)[O-]
# [3] = system: C[N+]1(C)CCC[C@@H]1C(=O)[O-]; type: biochemical, Cereibacter sphaeroides
Substance,Km [1] [mM],kcat [1] [s⁻¹],kcat/Km [1] [M⁻¹ s⁻¹],Km [2] [mM],kcat [2] [s⁻¹],kcat/Km [2] [M⁻¹ s⁻¹],Km [3] [mM],kcat [3] [s⁻¹],kcat/Km [3] [M⁻¹ s⁻¹]
pdHpbD (Paracoccus denitrificans PD1222),7.3 ± 3,28 ± 6,3800,,,,,,
rsHpbD (Cereibacter sphaeroides 2.4.1),,,,16 ± 7,70 ± 7,4300,11 ± 4,4.3 ± 0.6,390
